The target in assay [1] is T1, MBP-Norrin (maltose binding protein fused to the N-terminus of human Norrin residues 25-133, wild-type) (human). Put plainly: calculated from the homologous competition assay (FIG. 4B, 4C); Kd derived from the same homologous competition.
The next assay concerns the target T2, MBP-Norrin K54E/R109E (human).
T2 construct: MBP tagged mutant purified like the wild-type; also called K54E/R109E double mutant
Put plainly: AlphaScreen competition: unlabeled mutant MBP-Norrin against b-DKK1 peptide on H8-Lrp6 BP1-2. In general terms: In Alpha technology, singlet oxygen from a donor bead excites a nearby acceptor bead.

Another assay concerns the target biotinylated MBP-Norrin (human). Put plainly: AlphaScreen saturation binding curve; binding avidity of dimer to dimer (FIG. 1E).
Assay [2] deals with T1, MBP-Norrin (maltose binding protein …). The assay is described as follows: biolayer interferometry; binding avidity of dimer to dimer (FIG. 8A).
Assay [3] addresses T3, Tspan12-YFP (human Tspan12 with YFP at the C-terminus) (human, UniProt O95859 1-305).
T3 construct: whole, on cells; also called YFP-tagged Tspan12; not shown: YFP
T3 sequence (looked up): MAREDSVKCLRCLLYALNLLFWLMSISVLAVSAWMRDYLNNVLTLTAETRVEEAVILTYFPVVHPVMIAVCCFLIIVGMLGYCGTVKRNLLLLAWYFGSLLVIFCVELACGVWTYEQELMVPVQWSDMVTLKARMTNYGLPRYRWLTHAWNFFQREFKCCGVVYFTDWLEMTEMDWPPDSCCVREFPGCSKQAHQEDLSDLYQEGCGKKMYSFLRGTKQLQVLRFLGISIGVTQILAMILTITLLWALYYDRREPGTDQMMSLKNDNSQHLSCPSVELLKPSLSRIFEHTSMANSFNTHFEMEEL
The assay is described as follows: static BRET in transfected COS-1 cells. Background: Bioluminescence resonance energy transfer reports proximity on the nanometre scale.

Assay [4] has as its target T4, Fz4-YFP (full-length human Fz4 with yellow fluorescent protein at the C-terminus) (human, UniProt Q9ULV1 37-537).
T4 construct: whole, on cells; also called YFP-tagged Fz4; not shown: YFP
T4 sequence (looked up): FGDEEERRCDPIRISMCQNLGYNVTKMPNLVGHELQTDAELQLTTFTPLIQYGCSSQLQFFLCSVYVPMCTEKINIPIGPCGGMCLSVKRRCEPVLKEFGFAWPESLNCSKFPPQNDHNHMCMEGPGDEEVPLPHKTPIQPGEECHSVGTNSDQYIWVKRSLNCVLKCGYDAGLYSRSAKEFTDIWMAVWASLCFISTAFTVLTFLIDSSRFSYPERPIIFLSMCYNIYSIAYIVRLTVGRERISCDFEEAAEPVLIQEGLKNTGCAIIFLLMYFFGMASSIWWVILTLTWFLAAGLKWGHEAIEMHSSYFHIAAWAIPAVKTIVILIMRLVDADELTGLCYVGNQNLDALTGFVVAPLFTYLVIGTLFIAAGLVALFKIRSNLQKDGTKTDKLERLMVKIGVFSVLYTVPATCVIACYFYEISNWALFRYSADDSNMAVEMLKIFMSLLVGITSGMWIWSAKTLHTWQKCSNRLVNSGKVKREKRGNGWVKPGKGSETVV
Put plainly: static BRET in transfected COS-1 cells.

In assay [5] the target is T5, Fz4-Rlu (full-length human Fz4 with Renilla luciferase at the C-terminus) (human, UniProt Q9ULV1 37-537).
T5 construct: whole, on cells; also called Rlu-tagged Fz4; not shown: Renilla luciferase (Rlu)
T5 sequence (looked up): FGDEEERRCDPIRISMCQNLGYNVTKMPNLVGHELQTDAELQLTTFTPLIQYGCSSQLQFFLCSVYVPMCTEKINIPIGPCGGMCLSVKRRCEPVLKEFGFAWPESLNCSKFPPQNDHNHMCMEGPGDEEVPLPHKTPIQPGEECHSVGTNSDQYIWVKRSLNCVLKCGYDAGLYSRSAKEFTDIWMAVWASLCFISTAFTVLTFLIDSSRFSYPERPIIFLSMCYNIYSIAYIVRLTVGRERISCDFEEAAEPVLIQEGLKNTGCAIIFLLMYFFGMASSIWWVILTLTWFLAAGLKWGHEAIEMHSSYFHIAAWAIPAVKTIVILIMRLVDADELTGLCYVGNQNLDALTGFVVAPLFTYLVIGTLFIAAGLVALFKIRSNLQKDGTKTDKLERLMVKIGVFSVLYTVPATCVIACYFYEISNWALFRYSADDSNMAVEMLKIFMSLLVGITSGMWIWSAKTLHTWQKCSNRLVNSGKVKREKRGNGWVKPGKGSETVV
The assay is described as follows: saturation BRET in transfected COS-1 cells.

B1: His8-tagged Lrp6 BP1-2 (Lrp6 extracellular beta-propeller domains 1 and 2) (receptor, UniProt O75581 20-631, looked up)
chain: APLLLYANRRDLRLVDATNGKENATIVVGGLEDAAAVDFVFSHGLIYWSDVSEEAIKRTEFNKTESVQNVVVSGLLSPDGLACDWLGEKLYWTDSETNRIEVSNLDGSLRKVLFWQELDQPRAIALDPSSGFMYWTDWGEVPKIERAGMDGSSRFIIINSEIYWPNGLTLDYEEQKLYWADAKLNFIHKSNLDGTNRQAVVKGSLPHPFALTLFEDILYWTDWSTHSILACNKYTGEGLREIHSDIFSPMDIHAFSQQRQPNATNPCGIDNGGCSHLCLMSPVKPFYQCACPTGVKLLENGKTCKDGATELLLLARRTDLRRISLDTPDFTDIVLQLEDIRHAIAIDYDPVEGYIYWTDDEVRAIRRSFIDGSGSQFVVTAQIAHPDGIAVDWVARNLYWTDTGTDRIEVTRLNGTMRKILISEDLEEPRAIVLDPMVGYMYWTDWGEIPKIERAALDGSDRVVLVNTSLGWPNGLALDYDEGKIYWGDAKTDKIEVMNTDGTGRRVLVEDKIPHIFGFTLLGDYVYWTDWQRRSIERVHKRSAEREVIIDQLPDLMGLKATNVHRVIGSNPCAEENGGCSHLCLYRPQGLRCACPIGFELISDMKTCIVPE
notes: domain: β-propeller domains 1-2 (BP1-2); for the separate Fc constructs BP1 is 20-325 and BP2 is 325-631; also called H8-Lrp6 BP1-2; not shown: His8 tag (eight histidines)
For B1, the Kd in assay [1] is roughly 450 nM. The binding result with MBP-Norrin K54E/R109E is on record as “no binding (tested: 1.805 µM)”.

B2: Fz4-FcH6 (human Frizzled 4 CRD, residues 40-164, fused to Fc and His6 tags) (Fc fusion)
chain: EEERRCDPIRISMCQNLGYNVTKMPNLVGHELQTDAELQLTTFTPLIQYGCSSQLQFFLCSVYVPMCTEKINIPIGPCGGMCLSVKRRCEPVLKEFGFAWPESLNCSKFPPQNDHNHMCMEGPGD
notes: range 40-164; also called Fz4 CRD-FcH6; Fz4-FcH6 dimer; not shown: Fc tag of the pHL-IgL-FcH6 vector; His6 tag (six histidines)
Regarding B2, the Kd with biotinylated MBP-Norrin is roughly 11 nM; in assay [2], roughly 5 nM.

B3: Soluble-Rlu (enzyme)
chain: MTSKVYDPEQRKRMITGPQWWARCKQMNVLDSFINYYDSEKHAENAVIFLHGNAASSYLWRHVVPHIEPVARCIIPDLIGMGKSGKSGNGSYRLLDHYKYLTAWFELLNLPKKIIFVGHDWGACLAFHYSYEHQDKIKAIVHAESVVDVIESWDEWPDIEEDIALIKSEEGEKMVLENNFFVETMLPSKIMRKLEPEEFAAYLEPFKEKGEVRRPTLSWPREIPLVKGGKPDVVQIVRNYNAYLRASDDLPKMFIESDPGFFSNAIVEGAKKFPNTEFVKVKGLHFSQEDAPDEMGKYIKSFVERVLKNEQ
Turning to B3, the binding result in assay [3] and in assay [4] was “no binding” in each case.

B4: CCK2R-YFP (receptor, UniProt P32239 1-447, looked up)
chain: MELLKLNRSVQGTGPGPGASLCRPGAPLLNSSSVGNLSCEPPRIRGAGTRELELAIRITLYAVIFLMSVGGNMLIIVVLGLSRRLRTVTNAFLLSLAVSDLLLAVACMPFTLLPNLMGTFIFGTVICKAVSYLMGVSVSVSTLSLVAIALERYSAICRPLQARVWQTRSHAARVIVATWLLSGLLMVPYPVYTVVQPVGPRVLQCVHRWPSARVRQTWSVLLLLLLFFIPGVVMAVAYGLISRELYLGLRFDGDSDSDSQSRVRNQGGLPGAVHQNGRCRPETGAVGEDSDGCYVQLPRSRPALELTALTAPGPGSGSRPTQAKLLAKKRVVRMLLVIVVLFFLCWLPVYSANTWRAFDGPGAHRALSGAPISFIHLLSYASACVNPLVYCFMHRRFRQACLETCARCCPRPPRARPRALPDEDPPTPSIASLSRLSYTTISTLGPG
notes: whole, on cells; Negative control of the saturation BRET; also called CCK2R-YFP, an unrelated seven-transmembrane receptor; not shown: YFP
For the molecule B4, the binding result in assay [5] is given as “no binding (tested: YFP/Rlu about 33 (ratio))”.

Source of the values: patent US20150376252A1 (VAN ANDEL RESEARCH INSTITUTE, published 2015).
